Experiment: yeast display, Sf9 membrane polyspecificity reagent, FACS + sequencing; frameworks hold sequencing errors
Outline: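 A nanobody's polyreactivity label depends on the gate it was sorted from. Yeast display cells were stained with 10% biotinylated, detergent-solubilized Sf9 membrane reagent for 1 hour at 4 °C, enriched on streptavidin microbeads and sorted by FACS. The low and high (top ~1%) gates were set on anti-HA fluorescence for expression and streptavidin fluorescence for reagent binding.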

For “QVQLVESGGGLVQAGGSLRLSCAASGFIFEHYAMGWYRQAPGKERELVARISWRGGSTYYGDSVKGRFTISRDNAKNTVYLQMNSLKPEDTAVYYCAKYAHGHKWYGYWGQGTQVTVSS”, the “polyreactivity (PSR sort gate)” value was “low polyreactivity”.
For “QVQLVESGGGLVQAGGSLRLSCAASGFIFEKYTMGWYRQAPGKERELVAAITWNGGSTYYADSVKGRFTISRDNAKNTVYLQMNSLKPEDTAVYYCAARVGWNKRRYDYWGQGTQVTVSS”, the “polyreactivity (PSR sort gate)” value was “low polyreactivity”.
For “QVQLVESGGGLVQAGGSLRLSCAASGFIFEYYAMGWYRQAPGKERELVAAISQSGGSTYYADSVKGRFTISRDNAKNTVYLQMNSLKPEDTAVYYCNKTRYSRSYYEYDYWGQGTQVTVSS”, the “polyreactivity (PSR sort gate)” value was “low polyreactivity”.
For “QVQLVESGGGLVQAGGSLRLSCAASGFIFEYYVMGWYRQAPGKERELVAAISGSGGSTNYADSVKGRFTISRDNAKNTVYLQMNSLKPEDTAVYYCAARYYYFSANIFRYYYWGQGTQVTVSS”, the “polyreactivity (PSR sort gate)” value was “high polyreactivity”.
With “QVQLVESGGGLVQAGGSLRLSCAASGFIFEYYVMGWYRQAPGKERELVAAISSSDGSTNYADSVKGRFTISRDNAKNTVYLQMNSLKPEDTAVYYCAKDLLKSYNRVVVDADDYWGQGTQVTVSS” the “polyreactivity (PSR sort gate)” value was “low polyreactivity”.
For “QVQLVESGGGLVQAGGSLRLSCAASGFIFFGYAMGWYRQAPGKEMELVAAITSGGSTYYADSVKGRFTISRDNAKNTVYLQMNSLKPEDSAVYYCAAVRWYGSKRYGYWGQGTQVTVSS”, the “polyreactivity (PSR sort gate)” value was “high polyreactivity”.
For “QVQLVESGGGLVQAGGSLRLSCAASGFIFFGYAMGWYRQAPGKERELVAAITSGGSTYYADSVKGRFTISRDNAKNTVYLQMNSLKPEDTAVYYCAASRVRYSYGYPYYYWGQGTQVTVSS”, the “polyreactivity (PSR sort gate)” value was “high polyreactivity”.
With “QVQLVESGGGLVQAGGSLRLSCAASGFIFFINDMGWYRQAPGKERELVAAISWSGGSTYYADSVKGRFTLSRDNAKNTVYLQMNSLKPEDTAVNYCNTDVPTAQYDYWGQGSQVTVSS” the “polyreactivity (PSR sort gate)” value was “low polyreactivity”.
For “QVQLVESGGGLVQAGGSLRLSCAASGFIFFKYVMGWYRPAPGKERELVAAISTTGGRTYYADSVKGRFTISRDNAKNTVYLQMNSLKPEDTAVYYCAADYPVWNHGFDYWGQGTQVTVSS”, the “polyreactivity (PSR sort gate)” value was “high polyreactivity”.
In the case of “QVQLVESGGGLVQAGGSLRLSCAASGFIFFRYAMGWYRQAPGKERELVAAISSSGGSTYYADSVKGRFTISRDNAKNTVYLQMNSLKPEDTAVYYCAAPRYRIFVGLGMEYWGQGTQVTVSS”, the “polyreactivity (PSR sort gate)” value is reported as “high polyreactivity”.
For “QVQLVESGGGLVQAGGSLRLSCAASGFIFFTYAMGWYRQSPGKERELVAAISSRGGSTYYADSVKGRFTISRDNAKNTVYLQMNSLKPEDTAVYYCAAQAYGRYPYGYWGQGTQVTVSS”, the “polyreactivity (PSR sort gate)” value was “high polyreactivity”.
For “QVQLVESGGGLVQAGGSLRLSCAASGFIFFYAMGWYRQAPGKERELVAAISSRGGSTYYADSVKGRFTISRDNAKNTVYLQMNSLKPEDTAVYYCAALLWSAESDYWGQGTQVTVSS”, the “polyreactivity (PSR sort gate)” value was “high polyreactivity”.
For “QVQLVESGGGLVQAGGSLRLSCAASGFIFGAYAMGWYRQAPGKESELVAAISWSGGRTYYADSLTGRFTISRDNAKNTVYLQMNSLKPEDTAVYYCAAAVYTTRYSASEYWGQGTEVTVSS”, the “polyreactivity (PSR sort gate)” value was “high polyreactivity”.
For “QVQLVESGGGLVQAGGSLRLSCAASGFIFGDKAMGWYRQAPGKERELVAAINSGSRTSYADSVKGRFTISRDNAKNTVYLQMNSLNPEDTAVYYCAAESVSSGDNASRYDYWGQGTQVTVSS”, the “polyreactivity (PSR sort gate)” value was “low polyreactivity”.
For “QVQLVESGGGLVQAGGSLRLSCAASGFIFGDYAMGWYRPAPGKERELVAAITWSGDGTYYADSVKGRFTISRDNAKNTVYLQMNSLKPEDTAVYYCAADFSPRRYHNRSFGYWGQGTQVTVSS”, the “polyreactivity (PSR sort gate)” value was “low polyreactivity”.
For “QVQLVESGGGLVQAGGSLRLSCAASGFIFGDYAMGWYRQAPGKERELVAAIRCSDSTTYYADSVKGRFTISRDNAKNTVYLQMNSLKPEDTAVYYCAAVGVVPRKKSARVYYWGQGTQVTVSS”, the “polyreactivity (PSR sort gate)” value was “low polyreactivity”.
In the case of “QVQLVESGGGLVQAGGSLRLSCAASGFIFGFYAMGGYRQAPGKERELVAAISWSGGSTYYADSVKGRFTISRDNAKNTVYLQMNSLKPEDTAVYYCAAYFYYLDDAVTYDYWGQGTQVTVSS”, the “polyreactivity (PSR sort gate)” value is reported as “low polyreactivity”.
In the case of “QVQLVESGGGLVQAGGSLRLSCAASGFIFGFYAMGWYRQAPGKERELVAAISSSGGSTYYADSVKGRFTISRDTAKNTGYLQMNSLKPEDTAVYYCAAYFYYLDDAVTYDYWGQGTQVTVSS”, the “polyreactivity (PSR sort gate)” value is reported as “low polyreactivity”.
With “QVQLVESGGGLVQAGGSLRLSCAASGFIFGGNAMGWYRQAPGKERELVAAISKSGGRTYYADSVKGRFTISRDNAKNTVYLQMNSLKPEDTAVYYCAAVPGRTAEDYGEDYWGQGTQVTVSS” the “polyreactivity (PSR sort gate)” value was “high polyreactivity”.
For “QVQLVESGGGLVQAGGSLRLSCAASGFIFGGNAMGWYRQAPGKVRELVAAITARSGSTYYADSVKGRFTISRDNAKNTVYLQMNSLKPEDTAVYYCAKGSLGSTRYYYWGQGTQVTVSS”, the “polyreactivity (PSR sort gate)” value was “low polyreactivity”.
In the case of “QVQLVESGGGLVQAGGSLRLSCAASGFIFGGYAMGWYRQAPGKERELVADISSGDSTKYADSVKGRFTISRDNAKNTVYLQMNSLKPEDTAVYYCAADAVVSTWTQFEYDYWGQGTQVTVSS”, the “polyreactivity (PSR sort gate)” value is reported as “low polyreactivity”.
For “QVQLVESGGGLVQAGGSLRLSCAASGFIFGGYAMGWYRQAPGNERDLVAAITSSGGDTYYADSVKGRFTISRDNAKNTVYLQMNSLKPEDTAVYYCAKRARRIGDVNMGSWGQGTQVTVSS”, the “polyreactivity (PSR sort gate)” value was “low polyreactivity”.
For “QVQLVESGGGLVQAGGSLRLSCAASGFIFGGYTMGWYRQAPGKERELVAAISKTGGSTYYADSVKGRFTISRDNAKNTVYLQMNSLKPEDTAVYYCAVARSAYYRGNHWGQGTQVTVSS”, the “polyreactivity (PSR sort gate)” value was “high polyreactivity”.
For “QVQLVESGGGLVQAGGSLRLSCAASGFIFGHNDMGWYRQAPGKERELVASISKSGGDTYYADSVKGRFTISRDNAKNTVYLQMNSLKPEDTAVYYCAADGPDAYYYHRYIYFRRSYYWGHGTQVTVSS”, the “polyreactivity (PSR sort gate)” value was “low polyreactivity”.
With “QVQLVESGGGLVQAGGSLRLSCAASGFIFGHNTMVWYRQAPGKERELVAAITRSGGRTYYADSVKGRFTISRDNAKNTVYLQMNSLKPEDTAVYYCNAYPTRPADGDYDYWGQGTQVTVSS” the “polyreactivity (PSR sort gate)” value was “high polyreactivity”.
With “QVQLVESGGGLVQAGGSLRLSCAASGFIFGHYAMGWYRPAPGKERELVATIRRDPSRTYYADSVKGRFTISRDNAKNTVYLQMNSLKPEDTAVYYCATAQYIWGRSKYYYWGQGTQVTVSS” the “polyreactivity (PSR sort gate)” value was “high polyreactivity”.
With “QVQLVESGGGLVQAGGSLRLSCAASGFIFGHYTMGWYRQAPGKERELVAAITTGGRTYYADSVKGRFTISRDNAKNTVYLQMNSLKPEDTAVYYCAARGYIWGQGTQVTVSS” the “polyreactivity (PSR sort gate)” value was “high polyreactivity”.
With “QVQLVESGGGLVQAGGSLRLSCAASGFIFGINAMGWYRQAPGKERELVAAISKRTGSTYYADSVKGRFTISRDNAKNTVYLQMNSLKPEDTAVYYCNVVRYNGLDKYDYWGQGTQVTVSS” the “polyreactivity (PSR sort gate)” value was “high polyreactivity”.
For “QVQLVESGGGLVQAGGSLRLSCAASGFIFGIYAMGWYRQAPGKERELVAAISYRGGRTYYADSVKGRFTISRDNAKNTVYLQMNSLKPEDTAVYYCNTRGYRPGYNYWGQCTQVTVSS”, the “polyreactivity (PSR sort gate)” value was “high polyreactivity”.
With “QVQLVESGGGLVQAGGSLRLSCAASGFIFGKYAMGWYRQAPGKEREFVAAITGNGGSTYYADSVKGRFTISRDYAKNTVYLQMNSLKPVDSAVYYCYADRGYRRRSGMVYWGQGTQVSVSS” the “polyreactivity (PSR sort gate)” value was “low polyreactivity”.
For “QVQLVESGGGLVQAGGSLRLSCAASGFIFGLYDMGWYRQAPGKERELVAAISWSGGSTYYADSVKGRFTISRDNAKNTVYLQMNSLKPQDTAFYYCAAKHVGWYVQEEDYWGQGSQVTVSS”, the “polyreactivity (PSR sort gate)” value was “low polyreactivity”.
In the case of “QVQLVESGGGLVQAGGSLRLSCAASGFIFGLYGMGWYRPAPGKERELVAAISTSSGITYYADSVKGRFTISRDNAKNTVYLQMNSLKPEDTAVYYCAARGHYYDYWGQGTQVTVSS”, the “polyreactivity (PSR sort gate)” value is reported as “low polyreactivity”.

From the nanobody polyreactivity screen of Harvey et al. (2022)
